No end group written: not given here.
Biological target: T1, His-tagged P3028 (human, also: His-tag, terminus and sequence not given here)
T1 construct: in solution at 0.5 ug/mL over the peptide cards; found with anti-His-tag antibody and rabbit anti-mouse peroxidase (rampo); also called PGE73; not shown: His-tag
T1 peptide: VFDEFKPLVEEPQNLIK
Experiment: PEPSCAN chip ELISA, His-P3028 in solution;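 note: score is the raw OD at 405 nm from peroxidase colour with ABTS, imaged by CCD camera before and after staining, with wells showing air bubbles set to zero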

| Binder | RAMPO Score [rampo score] |
| --- | --- |
| RKLDTFFVKLSLFTER [SEQ ID NO 3] | 523 |
| KKGDTFFVKLSLFTER [SEQ ID NO 4] | 563 |
| KKEDTFFVKLSLFTER [SEQ ID NO 5] | 528 |
| KKLDQFFVKLSLFTER [SEQ ID NO 6] | 535 |
| KKLDTAFVKLSLFTER [SEQ ID NO 7] | 575 |
| KKLDTVFVKLSLFTER [SEQ ID NO 8] | 547 |
| KKLDTFMVKLSLFTER [SEQ ID NO 9] | 712 |
| KKLDTFSVKLSLFTER [SEQ ID NO 10] | 700 |
| KKLDTFVVKLSLFTER [SEQ ID NO 11] | 527 |
| KKLDTFTVKLSLFTER [SEQ ID NO 12] | 517 |
| KKLDTFLVKLSLFTER [SEQ ID NO 13] | 517 |
| KKLDTFFVKVSLFTER [SEQ ID NO 14] | 658 |
| KKLDTFFVKLQLFTER [SEQ ID NO 15] | 768 |
| KKLDTFFVKLMLFTER [SEQ ID NO 16] | 744 |
| KKLDTFFVKLTLFTER [SEQ ID NO 17] | 520 |
| KKLDTFFVKLHLFTER [SEQ ID NO 18] | 535 |
| KKLDTFFVKLSQFTER [SEQ ID NO 19] | 651 |
| KKLDTFFVKLSVFTER [SEQ ID NO 20] | 545 |
| KKLDTFFVKLSMFTER [SEQ ID NO 21] | 499 |
| KKLDTFFVKLSLMTER [SEQ ID NO 22] | 1190 |
| KKLDTFFVKLSLQTER [SEQ ID NO 23] | 1140 |
| KKLDTFFVKLSLHTER [SEQ ID NO 24] | 1050 |
| KKLDTFFVKLSLNTER [SEQ ID NO 25] | 862 |
| KKLDTFFVKLSLPTER [SEQ ID NO 26] | 696 |

| Binder | RAMPO Score [rampo score] |
| --- | --- |
| KKLDTFFVKLSLSTER [SEQ ID NO 27] | 635 |
| KKLDTFFVKLSLGTER [SEQ ID NO 28] | 531 |
| KKLDTFFVKLSLATER [SEQ ID NO 29] | 525 |
| KKLDTFFVKLSLRTER [SEQ ID NO 30] | 502 |
| KKLDTFFVKLSLFNER [SEQ ID NO 31] | 599 |
| KKLDTFFVKLSLFPER [SEQ ID NO 32] | 551 |
| KKLDTFFVKLSLFRER [SEQ ID NO 33] | 264 |
| GKLDTFFVKLSLFTER [SEQ ID NO 93] | 367 |
| KKGDTFFVKLSLFTER [SEQ ID NO 94] | 563 |
| KKLDGFFVKLSLFTER [SEQ ID NO 95] | 386 |
| KKLDTFGVKLSLFTER [SEQ ID NO 96] | 347 |
| KKLDTFFVKLGLFTER [SEQ ID NO 99] | 288 |
| KKLDTFFVKLSLGTER [SEQ ID NO 100] | 531 |
| KKLDTFFKKLSLFTER (also called P27; SCF 27) [SEQ ID NO 264] | 253 |
| AKLDTFFVKLSLFTER [SEQ ID NO 268] | 466 |
| DKLDTFFVKLSLFTER [SEQ ID NO 269] | 373 |
| EKLDTFFVKLSLFTER [SEQ ID NO 270] | 396 |
| GKLDTFFVKLSLFTER [SEQ ID NO 271] | 367 |
| HKLDTFFVKLSLFTER [SEQ ID NO 272] | 428 |
| IKLDTFFVKLSLFTER [SEQ ID NO 273] | 483 |
| LKLDTFFVKLSLFTER [SEQ ID NO 274] | 449 |
| MKLDTFFVKLSLFTER [SEQ ID NO 275] | 457 |
| NKLDTFFVKLSLFTER [SEQ ID NO 276] | 445 |
| PKLDTFFVKLSLFTER [SEQ ID NO 277] | 387 |

| Binder | RAMPO Score [rampo score] |
| --- | --- |
| QKLDTFFVKLSLFTER [SEQ ID NO 278] | 455 |
| RKLDTFFVKLSLFTER [SEQ ID NO 279] | 523 |
| TKLDTFFVKLSLFTER [SEQ ID NO 280] | 493 |
| VKLDTFFVKLSLFTER [SEQ ID NO 281] | 442 |
| KKADTFFVKLSLFTER [SEQ ID NO 282] | 427 |
| KKCDTFFVKLSLFTER [SEQ ID NO 283] | 432 |
| KKDDTFFVKLSLFTER [SEQ ID NO 284] | 492 |
| KKEDTFFVKLSLFTER [SEQ ID NO 285] | 528 |
| KKFDTFFVKLSLFTER [SEQ ID NO 286] | 393 |
| KKGDTFFVKLSLFTER [SEQ ID NO 287] | 563 |
| KKHDTFFVKLSLFTER [SEQ ID NO 288] | 477 |
| KKIDTFFVKLSLFTER [SEQ ID NO 289] | 454 |
| KKKDTFFVKLSLFTER [SEQ ID NO 290] | 386 |
| KKMDTFFVKLSLFTER [SEQ ID NO 291] | 460 |
| KKNDTFFVKLSLFTER [SEQ ID NO 292] | 374 |
| KKQDTFFVKLSLFTER [SEQ ID NO 293] | 473 |
| KKRDTFFVKLSLFTER [SEQ ID NO 294] | 370 |
| KKSDTFFVKLSLFTER [SEQ ID NO 295] | 393 |
| KKTDTFFVKLSLFTER [SEQ ID NO 296] | 451 |
| KKVDTFFVKLSLFTER [SEQ ID NO 297] | 377 |
| KKLATFFVKLSLFTER [SEQ ID NO 298] | 494 |
| KKLETFFVKLSLFTER [SEQ ID NO 299] | 417 |
| KKLITFFVKLSLFTER [SEQ ID NO 300] | 430 |

Source: patent publication US20170298096A1 (CANIMGUIDE THERAPEUTICS, published 2017)
